Test results taken from IntAct's records for PubMed 16418290.

B1: Caspase recruitment domain-containing protein 6 (Homo sapiens), Q9BX69 (parent)
chain: MATESTPSEIIERERKKLLEILQHDPDSILDTLTSRRLISEEEYETLENVTDLLKKSRKLLILVQKKGEATCQHFLKCLFSTFPQSAAICGLRHEVLKHENTVPPQSMGASSNSEDAFSPGIKQPEAPEITVFFSEKEHLDLETSEFFRDKKTSYRETALSARKNEKEYDTPEVTLSYSVEKVGCEVPATITYIKDGQRYEELDDSLYLGKEEYLGSVDTPEDAEATVEEEVYDDPEHVGYDGEEDFENSETTEFSGEEPSYEGSETSLSLEEEQEKSIEERKKVFKDVLLCLNMDRSRKVLPDFVKQFSLDRGCKWTPESPGDLAWNFLMKVQARDVTARDSILSHKVLDEDSKEDLLAGVENLEIRDIQTINPLDVLCATMLCSDSSLQRQVMSNMYQCQFALPLLLPDAENNKSILMLGAMKDIVKKQSTQFSGGPTEDTEKFLTLMKMPVISFVRLGYCSFSKSRILNTLLSPAQLKLHKIFLHQDLPLLVLPRQISDGLVEITWCFPDSDDRKENPFFQKPVALANLRGNLESFWTQFGFLMEVSSAVFFFTDCLGEKEWDLLMFLGEAAIERCYFVLSSQARESEEAQIFQRILNLKPAQLLFWERGDAGDRRKNMEGLQAALQEVMFSSCLRCVSVEDMAALARELGIQVDEDFENTQRIQVSSGENMAGTAEGEGQQRHSQLKSSSKSQALMPIQEPGTQCELSQNLQNLYGTPVFRPVLENSWLFPTRIGGNFNHVSLKASWVMGRPFGSEQRPKWFHPLPFQNAGAQGRGKSFGIQSFHPQIFYSGERFMKFSRVARGCHSNGTFGRLPRPICQHVQACPERPQMMGTLERSRAVASKIGHSYSLDSQPARAVGKPWPQQACTRVTELTEATGKLIRTSHIGKPHPQSFQPAAATQKLRPASQQGVQMKTQGGASNPALQIGSHPMCKSSQFKSDQSNPSTVKHSQPKPFHSVPSQPKSSQTKSCQSQPSQTKPSPCKSTQPKPSQPWPPQSKPSQPRPPQPKSSSTNPSQAKAHHSKAGQKRGGKH

Variants of: B1
Conditions: with ripk2_human RIPK2, O43353
Chain of ripk2_human RIPK2, O43353 (O43353 whole entry): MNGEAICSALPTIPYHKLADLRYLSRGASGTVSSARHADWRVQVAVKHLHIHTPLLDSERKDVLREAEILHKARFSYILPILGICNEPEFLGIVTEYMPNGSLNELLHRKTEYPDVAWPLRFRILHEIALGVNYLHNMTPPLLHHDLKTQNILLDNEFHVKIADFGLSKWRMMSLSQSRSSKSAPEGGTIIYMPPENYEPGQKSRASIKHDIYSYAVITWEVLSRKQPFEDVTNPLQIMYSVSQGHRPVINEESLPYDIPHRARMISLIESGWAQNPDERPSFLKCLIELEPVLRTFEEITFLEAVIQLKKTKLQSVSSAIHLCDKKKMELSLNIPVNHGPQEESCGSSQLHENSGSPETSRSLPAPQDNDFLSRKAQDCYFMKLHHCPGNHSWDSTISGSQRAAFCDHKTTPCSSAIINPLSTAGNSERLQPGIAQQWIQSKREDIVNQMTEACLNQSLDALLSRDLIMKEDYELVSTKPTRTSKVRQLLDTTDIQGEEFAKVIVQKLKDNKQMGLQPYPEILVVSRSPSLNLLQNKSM

| Variant | effect of a mutation on the interaction |
| --- | --- |
| L30R;D31N;L33R | increasing interaction strength |
